Test results as given in article PMC4357434.

Tests used:
[1] = molecular target: RFP-tubulin (TagRFP-labeled α-tubulin) (UniProt P68363); test: FRET or BRET; FRET-iMSD (spatiotemporal image correlation of the FRET signal), TIRF time series at 10 ms resolution, about 60 s, live co-transfected CHO cells, basal condition; characteristic time of binding τb from the fit of G(0,τ)
[2] = molecular target: TRPV1-RFP (Transient Receptor Potential Vanilloid 1 fused at its C-terminus to TagRFP) (UniProt O35433); test: FRET or BRET; acceptor photobleaching FRET in TIRF mode on live co-transfected CHO cells; acceptor bleached at 561 nm; apparent FRET percentage E pb after Stepensky
[3] = molecular target: TRPV1-RFP (Transient Receptor Potential Vanilloid 1 fused at its C-terminus to TagRFP) (UniProt O35433); test: FRET or BRET; FRET-iMSD (spatiotemporal image correlation of the FRET signal), TIRF time series at 10 ms resolution, about 60 s, live co-transfected CHO cells, basal condition; characteristic time of binding τb from the fit of G(0,τ)
[4] = molecular target: TRPV1-RFP (Transient Receptor Potential Vanilloid 1 fused at its C-terminus to TagRFP) (UniProt O35433); test: FRET or BRET; sensitized emission FRET (SE-FRET) imaged in TIRF mode on the membrane of live CHO K1 cells co-transfected with donor- and acceptor-fused proteins; bleed-through corrected; donor-normalised apparent FRET efficiency E D; 37°C

Chain of UniProt O35433 (O35433 whole entry, the tested form may be a part): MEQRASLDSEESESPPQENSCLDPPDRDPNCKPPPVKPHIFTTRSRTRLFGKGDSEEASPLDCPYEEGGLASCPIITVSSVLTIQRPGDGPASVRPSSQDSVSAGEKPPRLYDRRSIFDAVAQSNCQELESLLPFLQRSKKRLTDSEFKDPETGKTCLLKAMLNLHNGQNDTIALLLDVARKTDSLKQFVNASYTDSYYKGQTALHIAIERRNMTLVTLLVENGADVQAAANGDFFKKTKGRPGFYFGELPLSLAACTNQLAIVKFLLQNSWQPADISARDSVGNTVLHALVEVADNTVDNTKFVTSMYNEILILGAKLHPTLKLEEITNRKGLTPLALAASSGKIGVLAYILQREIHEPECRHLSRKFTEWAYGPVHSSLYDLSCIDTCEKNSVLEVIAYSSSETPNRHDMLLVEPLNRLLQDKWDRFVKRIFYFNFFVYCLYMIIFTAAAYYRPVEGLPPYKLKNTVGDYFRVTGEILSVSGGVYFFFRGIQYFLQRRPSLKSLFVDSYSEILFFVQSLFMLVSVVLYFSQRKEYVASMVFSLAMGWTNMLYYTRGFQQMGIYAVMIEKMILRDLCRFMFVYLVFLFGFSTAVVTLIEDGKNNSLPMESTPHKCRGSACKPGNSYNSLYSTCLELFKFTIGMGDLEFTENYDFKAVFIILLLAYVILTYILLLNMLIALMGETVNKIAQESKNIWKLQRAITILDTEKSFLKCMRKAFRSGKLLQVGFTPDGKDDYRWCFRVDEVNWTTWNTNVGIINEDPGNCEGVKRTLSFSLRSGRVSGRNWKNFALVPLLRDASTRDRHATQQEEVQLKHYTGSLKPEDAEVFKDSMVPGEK
Chain of UniProt P68363 (P68363 whole entry, the tested form may be a part): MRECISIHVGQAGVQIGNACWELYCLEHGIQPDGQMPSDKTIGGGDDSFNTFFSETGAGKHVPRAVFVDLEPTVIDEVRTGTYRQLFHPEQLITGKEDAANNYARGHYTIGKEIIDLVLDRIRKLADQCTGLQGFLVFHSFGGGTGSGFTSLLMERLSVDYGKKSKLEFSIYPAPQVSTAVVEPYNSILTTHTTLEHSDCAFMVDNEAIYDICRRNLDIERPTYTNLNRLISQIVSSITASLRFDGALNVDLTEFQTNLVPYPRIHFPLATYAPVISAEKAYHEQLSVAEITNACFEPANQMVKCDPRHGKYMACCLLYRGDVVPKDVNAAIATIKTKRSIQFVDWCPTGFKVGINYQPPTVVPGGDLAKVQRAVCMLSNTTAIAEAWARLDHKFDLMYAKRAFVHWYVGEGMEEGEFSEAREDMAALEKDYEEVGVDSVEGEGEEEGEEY

Molecule “TRPV1-EGFP (from UniProt O35433 1-838) (receptor)” has a τb (characteristic time of binding) [1] greater than 60 s.

B1: Caveolin-1-EGFP (natural protein)
chain: MSGGKYVDSEGHLYTVPIREQGNIYKPNNKAMAEEMSEKQVYDAHTKEIDLVNRDPKHLNDDVVKIDFEDVIAEPEGTHSFDGIWKASFTTFTVTKYWFYRLLSALFGIPMALIWGIYFAILSFLHIWAVVPCIKSFLIEIQCISRVYSIYVHTFCDPFFEAVGKIFSNIRINMQKET
B1 showed an apparent FRET percentage E pb (acceptor photobleaching) [2] of 11%, a τb (characteristic time of binding) [3] of 16.4 s and an apparent FRET efficiency E D [4] of 4%.

B2: Caveolin-1-YFP (natural protein)
chain: MSGGKYVDSEGHLYTVPIREQGNIYKPNNKAMAEEMSEKQVYDAHTKEIDLVNRDPKHLNDDVVKIDFEDVIAEPEGTHSFDGIWKASFTTFTVTKYWFYRLLSALFGIPMALIWGIYFAILSFLHIWAVVPCIKSFLIEIQCISRVYSIYVHTFCDPFFEAVGKIFSNIRINMQKET
With B2 the apparent FRET efficiency E D [4] was 30%.
